Data set [1] deals with T1, Alpl (alkaline phosphatase) (Mus musculus, UniProt P09242 P09242:18-501).
T1 sequence: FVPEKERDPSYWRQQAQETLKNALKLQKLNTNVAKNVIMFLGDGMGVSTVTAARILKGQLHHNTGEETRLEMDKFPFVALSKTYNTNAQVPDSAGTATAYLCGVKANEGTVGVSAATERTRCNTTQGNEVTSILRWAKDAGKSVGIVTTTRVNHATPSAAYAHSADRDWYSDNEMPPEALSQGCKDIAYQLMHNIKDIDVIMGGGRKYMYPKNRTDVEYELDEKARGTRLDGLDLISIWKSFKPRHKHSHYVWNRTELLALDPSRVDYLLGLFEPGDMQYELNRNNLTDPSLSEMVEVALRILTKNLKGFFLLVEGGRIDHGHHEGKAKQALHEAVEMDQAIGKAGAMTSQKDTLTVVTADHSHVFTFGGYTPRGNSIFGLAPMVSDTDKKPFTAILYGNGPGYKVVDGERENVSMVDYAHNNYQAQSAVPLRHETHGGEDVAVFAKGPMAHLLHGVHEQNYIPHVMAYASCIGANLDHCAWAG
Description: flow; biotinylated aptamer alone on Ext1-/- mouse ES cells; cell-surface binding. The following applies: tags: endogenous on Ext1-/- mouse embryonic stem cells; chain copies: 2; G4.

Data set [2] has as its target T1, Alpl (alkaline phosphatase). Description: flow; Ext1-/- mouse ES cells, 40 min in suspension, 0-200 nM; binding significantly reduced after 6 days of neural differentiation. To be noted: tags: endogenous on Ext1-/- mouse embryonic stem cells; chain copies: 2; label: AF488 (on streptavidin); G4.

Drawing on patent US12797409, “Heparan sulfate mimetics to improve glucose clearance” (THE REGENTS OF THE UNIVERSITY OF CALIFORNIA), this text covers EC50 for two molecules.

B1: Aptamer 19S (ssDNA)
DNA: AGGTCAGATGAGGAGGGGGACTTAGGACTGGGTTTATGACCTATGCGTG
modifications: 5'-biotin
Molecule B1 had a concentration for a half-maximal effect (EC50) in data set [1] of roughly 107 nM.

B2: Hep-SA-19S (heparin-streptavidin-aptamer 19S chimera) (ssDNA)
DNA: AGGTCAGATGAGGAGGGGGACTTAGGACTGGGTTTATGACCTATGCGTG
modifications: 5'-biotin, bound to streptavidin carrying biotinylated heparin (1:1:1)
With B2, in data set [2], the EC50 came to 70 nM.

The EC50 is the concentration needed to bring the measured effect to its halfway point. A low value points to higher potency in that assay.
